Assay results: PMC4402530, “Unwinding forward and sliding back: an intermittent unwinding mode of the BLM helicase”

B1: F18/F18 bis dsDNA (18 bp) (dsDNA)
DNA 1: GCCTCGCTGCCGTCGCCA
DNA 2: TGGCGACGGCAGCGAGGC

Assays:
Assay in all cases: fluorescence anisotropy; 1 mM MgCl2, no ATP listed; 25 mM Tris-HCl pH 7.5 (last digit split in text), 100 mM NaCl, 1 mM MgCl2, 3 mM DTT, 5 nM DNA, 25 C, 5 min equilibration; Hill fit
Conditions in all cases: protein: recombinant
BLM642-1290 S1121A = BLM642-1290 S1121A (human, UniProt P54132 642-1290, S1121A)
Sequence of BLM642-1290 S1121A (P54132 642-1290 S1121A): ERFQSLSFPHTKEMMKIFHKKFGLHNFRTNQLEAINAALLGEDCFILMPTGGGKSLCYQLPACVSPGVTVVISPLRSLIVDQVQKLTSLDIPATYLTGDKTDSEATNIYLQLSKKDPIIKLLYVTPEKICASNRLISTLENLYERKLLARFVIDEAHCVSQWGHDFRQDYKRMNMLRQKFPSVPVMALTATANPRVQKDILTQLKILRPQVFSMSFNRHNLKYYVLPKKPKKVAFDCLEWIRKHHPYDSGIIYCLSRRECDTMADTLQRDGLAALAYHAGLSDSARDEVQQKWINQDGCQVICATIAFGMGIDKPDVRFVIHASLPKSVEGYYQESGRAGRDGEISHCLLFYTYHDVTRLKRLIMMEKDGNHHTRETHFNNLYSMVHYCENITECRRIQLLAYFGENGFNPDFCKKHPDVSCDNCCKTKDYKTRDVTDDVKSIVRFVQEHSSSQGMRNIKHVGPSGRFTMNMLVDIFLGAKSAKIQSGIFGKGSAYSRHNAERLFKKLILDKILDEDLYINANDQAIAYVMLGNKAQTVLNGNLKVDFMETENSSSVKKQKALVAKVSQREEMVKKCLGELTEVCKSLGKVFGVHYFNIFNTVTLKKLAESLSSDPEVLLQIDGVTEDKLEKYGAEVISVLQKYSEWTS

BLM642-1290 K1125A = BLM642-1290 K1125A (human, UniProt P54132 642-1290, K1125A)
Sequence of BLM642-1290 K1125A (P54132 642-1290 K1125A): as the sequence (P54132 642-1290 S1121A) above, with A480S, K484A counted along it

[1] = biological target: BLM642-1290 helicase core, wild type (human, UniProt P54132 642-1290)
Sequence of BLM642-1290 helicase core, wild type (P54132 642-1290): as the sequence (P54132 642-1290 S1121A) above, with A480S counted along it

BLM642-1290 T1110G = BLM642-1290 T1110G (human, UniProt P54132 642-1290, T1110G)
Sequence of BLM642-1290 T1110G (P54132 642-1290 T1110G): as the sequence (P54132 642-1290 S1121A) above, with T469G, A480S counted along it

[2] = label: 3' fluorescein on F18, blunt

Row | Binder | Kd (BLM642-1290 S1121A; label: 3' fluorescein) | Kd (BLM642-1290 K1125A; label: 3' fluorescein) | Kd ([1]; label: 3' fluorescein) | Kd (BLM642-1290 T1110G; label: 3' fluorescein) | Kd (BLM642-1290 S1121A; [2]) | Kd (BLM642-1290 K1125A; [2]) | Kd [1, 2] | Kd (BLM642-1290 T1110G; [2])
1 | GCCTCGCTGCCGTCGCCA (ssDNA) [F18 ssDNA (18 nt)] | 27.1 ± 3.7 nM | 21.3 ± 2.9 nM | 17.2 ± 1.6 nM | 29.7 ± 3.6 nM |  |  |  | 
2 | B1 |  |  |  |  | 14.9 ± 1.7 nM | 28.6 ± 2.6 nM | 4.6 ± 0.5 nM | 78.2 ± 7.2 nM
